“Also recorded” adds a separate entry of the source. Read-outs that look alike come from different tables or passages of the source. Bridge positions count the residues as written; N and C are the ends. Square brackets hold non-standard residues; d marks the D form. Triazole bridges read from a SMILES are 1,4-linked. Peptide text beside a SMILES is read from it. Lys(N3) = [N-]=[N+]=NCCCC[C@H](N)C(=O)O; Orn(N3) = [N-]=[N+]=NCCC[C@H](N)C(=O)O; Hpra = C#CCC[C@H](N)C(=O)O; Pra = C#CC[C@H](N)C(=O)O; Ahx = NCCCCCC(=O)O
Legend:
circular dichroism = details: PBS (10 mM phosphate, 137 mM NaCl, 2.7 mM KCl); pH 7.4; rt °C; 100 uM
Panx1 channels [1] = biological target: T1, Panx1 channels (Homo sapiens, UniProt Q96RD7); test: HOS-induced ATP release assay in EA.hy926 endothelial cells; type: cell-based
T1 construct: host or cells: EA.hy926 human endothelial cells
T1 sequence (Q96RD7 whole entry): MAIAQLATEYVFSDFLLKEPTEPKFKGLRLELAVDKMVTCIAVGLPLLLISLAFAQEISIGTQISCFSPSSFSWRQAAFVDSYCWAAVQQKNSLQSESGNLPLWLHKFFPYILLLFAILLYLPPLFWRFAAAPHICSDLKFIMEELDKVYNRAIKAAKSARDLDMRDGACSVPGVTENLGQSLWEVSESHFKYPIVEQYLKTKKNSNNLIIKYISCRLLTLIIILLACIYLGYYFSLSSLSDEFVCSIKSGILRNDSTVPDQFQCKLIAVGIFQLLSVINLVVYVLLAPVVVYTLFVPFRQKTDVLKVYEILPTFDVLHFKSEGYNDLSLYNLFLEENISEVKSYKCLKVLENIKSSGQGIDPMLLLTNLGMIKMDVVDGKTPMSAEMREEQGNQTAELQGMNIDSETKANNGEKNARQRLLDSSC
Procedure: Similar to B16-BL6 cells, a 2–3-fold enhancement of ATP release from EA.hy926 cells was observed upon HOS stimulation (Figure 7E). However, the absolute levels of ATP release were lower in these endothelial cells (around 300 vs 500–600 nM in B16-BL6 cells). As expected, Pbn reduced HOS-induced ATP release from EA.hy926 cells, albeit by a lower fraction than the one observed in B16-BL6 cells (Figure 7E vs7A). The reason for this different efficacy of Pbn is unknown but may be due to its nonspecific action on other ATP release channels or transporters,[68] of which the expression naturally varies among different cell types. […] The water-soluble double-stapled ^10Panx1 peptidomimetic SBL-PX1-206 reduced HOS-induced ATP release from EA.hy926 cells by about 25% at 12.5 μM. […] Stapled and double-stapled ^10Panx1 analogues were also not cytotoxic when tested at 100 and 12.5 μM in EA.hy926 cells (Supporting Information, Figure S8).
Triplicates were performed for each independent experiment.

Panx1 channels [2] = biological target: Panx1 channels (Mus musculus, UniProt Q9JIP4); test: HOS-induced ATP release assay in B16-BL6 cells; details: B16-BL6, read-out: % ATP release inhibition at 100µM (in B16-BL6 cells)
Chain of Panx1 channels (Mus musculus, UniProt Q9JIP4) (Q9JIP4 whole entry): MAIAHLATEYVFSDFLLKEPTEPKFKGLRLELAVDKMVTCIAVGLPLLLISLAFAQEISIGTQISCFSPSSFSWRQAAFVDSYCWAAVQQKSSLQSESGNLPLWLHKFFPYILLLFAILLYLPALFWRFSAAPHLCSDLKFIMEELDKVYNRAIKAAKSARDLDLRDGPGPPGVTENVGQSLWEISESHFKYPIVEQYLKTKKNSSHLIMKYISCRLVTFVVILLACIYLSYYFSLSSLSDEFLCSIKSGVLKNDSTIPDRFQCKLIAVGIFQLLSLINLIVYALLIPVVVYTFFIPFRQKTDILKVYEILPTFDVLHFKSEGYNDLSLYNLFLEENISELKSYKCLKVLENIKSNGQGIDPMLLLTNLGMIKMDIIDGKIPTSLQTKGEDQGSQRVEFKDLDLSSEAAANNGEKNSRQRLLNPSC

B16-BL6 cells = test: LDH cytotoxicity assay in B16-BL6 cells; type: cell-based, mouse; details: peptides 100 to 6.25 µM, Pbn 2.5 mM, HOS solution
human plasma = details: 37 °C

Row | Compound | helicity (circular dichroism) | other results
1 | CC(=O)N[C@@H](CO)C(=O)N[C@@H](Cc1c[nH]c2ccccc12)C(=O)N[C@@H](CCCNC(=N)N)C(=O)N[C@@H](CCC(N)=O)C(=O)N[C@@H](C)C(=O)N[C@@H]1Cc2cn(nn2)CCCC[C@@H](C(=O)N[C@@H](Cc2ccc(O)cc2)C(N)=O)NC(=O)[C@H](CC(=O)O)NC(=O)[C@H](C(C)C)NC(=O)[C@H](Cc2ccccc2)NC1=O | 7% | –
2 | CC(=O)N[C@@H]1Cc2cn(nn2)CCCC[C@@H](C(=O)N[C@@H](C)C(=O)N[C@@H](Cc2ccccc2)C(=O)N[C@H](C(=O)N[C@@H](CC(=O)O)C(=O)N[C@@H](CO)C(=O)N[C@@H](Cc2ccc(O)cc2)C(N)=O)C(C)C)NC(=O)[C@H](CCC(N)=O)NC(=O)[C@H](CCCNC(=N)N)NC(=O)[C@H](Cc2c[nH]c3ccccc23)NC1=O | 18% | –
3 | CC(=O)N[C@@H](CO)C(=O)N[C@@H](Cc1c[nH]c2ccccc12)C(=O)N[C@@H](CCCNC(=N)N)C(=O)N[C@@H](CCC(N)=O)C(=O)N[C@@H](C)C(=O)N[C@@H](C)C(=O)N[C@@H](Cc1ccccc1)C(=O)N[C@H]1Cc2cn(nn2)CCCC[C@@H](C(N)=O)NC(=O)[C@H](Cc2ccc(O)cc2)NC(=O)[C@H](CO)NC(=O)[C@H](CC(=O)O)NC1=O (Ac-SWRQAAF[Pra]DSY[Lys(N3)]-NH2; triazole 8-12) | 30% | –
4 | CC(=O)N[C@@H](CO)C(=O)N[C@@H](Cc1c[nH]c2ccccc12)C(=O)N[C@@H](CCCNC(=N)N)C(=O)N[C@@H](CCC(N)=O)C(=O)N[C@@H](C)C(=O)N[C@@H](C)C(=O)N[C@@H](Cc1ccccc1)C(=O)N[C@H]1Cc2cn(nn2)CCC[C@@H](C(N)=O)NC(=O)[C@H](Cc2ccc(O)cc2)NC(=O)[C@H](CO)NC(=O)[C@H](CC(=O)O)NC1=O (Ac-SWRQAAF[Pra]DSY[Orn(N3)]-NH2; triazole 8-12) | 12% | –
5 | CC(=O)N[C@@H](CO)C(=O)N[C@@H](Cc1c[nH]c2ccccc12)C(=O)N[C@@H](CCCNC(=N)N)C(=O)N[C@@H](CCC(N)=O)C(=O)N[C@@H](C)C(=O)N[C@@H](C)C(=O)N[C@H]1Cc2cn(nn2)CCCC[C@@H](C(N)=O)NC(=O)[C@H](CO)NC(=O)[C@H](CC(=O)O)NC(=O)[C@H](C(C)C)NC1=O (Ac-SWRQAA[Pra]VDS[Lys(N3)]-NH2; triazole 7-11) | 37% | –
6 | CC(=O)N[C@@H](CO)C(=O)N[C@@H](Cc1c[nH]c2ccccc12)C(=O)N[C@@H](CCCNC(=N)N)C(=O)N[C@@H](CCC(N)=O)C(=O)N[C@@H](C)C(=O)N[C@@H](C)C(=O)N[C@H]1Cc2cn(nn2)CCC[C@@H](C(N)=O)NC(=O)[C@H](CO)NC(=O)[C@H](CC(=O)O)NC(=O)[C@H](C(C)C)NC1=O (Ac-SWRQAA[Pra]VDS[Orn(N3)]-NH2; triazole 7-11) | 6% | –
7 | CC(=O)N[C@@H](CO)C(=O)N[C@@H](Cc1c[nH]c2ccccc12)C(=O)N[C@@H](CCCNC(=N)N)C(=O)N[C@@H](CCC(N)=O)C(=O)N[C@@H](C)C(=O)N[C@H]1CCc2cn(nn2)CCCC[C@@H](C(=O)N[C@@H](Cc2ccc(O)cc2)C(N)=O)NC(=O)[C@H](CC(=O)O)NC(=O)[C@H](C(C)C)NC(=O)[C@H](Cc2ccccc2)NC1=O (Ac-SWRQA[Hpra]FVD[Lys(N3)]Y-NH2; triazole 6-10) | 28% | –
8 | CC(=O)N[C@@H](CO)C(=O)N[C@@H](Cc1c[nH]c2ccccc12)C(=O)N[C@@H](CCCNC(=N)N)C(=O)N[C@@H](CCC(N)=O)C(=O)N[C@@H](C)C(=O)N[C@H]1CCCCn2cc(nn2)C[C@@H](C(=O)N[C@@H](Cc2ccc(O)cc2)C(N)=O)NC(=O)[C@H](CC(=O)O)NC(=O)[C@H](C(C)C)NC(=O)[C@H](Cc2ccccc2)NC1=O (Ac-SWRQA[Lys(N3)]FVD[Pra]Y-NH2; triazole 6-10) | 32% | –
9 | CC(=O)N[C@@H](CO)C(=O)N[C@@H](Cc1c[nH]c2ccccc12)C(=O)N[C@@H](CCCNC(=N)N)C(=O)N[C@@H](CCC(N)=O)C(=O)N[C@@H](C)C(=O)N[C@H]1Cc2cn(nn2)CCC[C@@H](C(=O)N[C@@H](Cc2ccc(O)cc2)C(N)=O)NC(=O)[C@H](CC(=O)O)NC(=O)[C@H](C(C)C)NC(=O)[C@H](Cc2ccccc2)NC1=O (Ac-SWRQA[Pra]FVD[Orn(N3)]Y-NH2; triazole 6-10) | 17% | –
10 | CC(=O)N[C@H]1CCc2cn(nn2)CCCC[C@@H](C(=O)N[C@@H](C)C(=O)N[C@@H](Cc2ccccc2)C(=O)N[C@H](C(=O)N[C@@H](CC(=O)O)C(=O)N[C@@H](CO)C(=O)N[C@@H](Cc2ccc(O)cc2)C(N)=O)C(C)C)NC(=O)[C@H](CCC(N)=O)NC(=O)[C@H](CCCNC(=N)N)NC(=O)[C@H](Cc2c[nH]c3ccccc23)NC1=O (Ac-[Hpra]WRQ[Lys(N3)]AFVDSY-NH2; triazole 1-5) | 26% | –
11 | CC(=O)N[C@H]1CCCCn2cc(nn2)C[C@@H](C(=O)N[C@@H](C)C(=O)N[C@@H](Cc2ccccc2)C(=O)N[C@H](C(=O)N[C@@H](CC(=O)O)C(=O)N[C@@H](CO)C(=O)N[C@@H](Cc2ccc(O)cc2)C(N)=O)C(C)C)NC(=O)[C@H](CCC(N)=O)NC(=O)[C@H](CCCNC(=N)N)NC(=O)[C@H](Cc2c[nH]c3ccccc23)NC1=O (Ac-[Lys(N3)]WRQ[Pra]AFVDSY-NH2; triazole 1-5) | 20% | –
12 | CC(=O)N[C@H]1Cc2cn(nn2)CCC[C@@H](C(=O)N[C@@H](C)C(=O)N[C@@H](Cc2ccccc2)C(=O)N[C@H](C(=O)N[C@@H](CC(=O)O)C(=O)N[C@@H](CO)C(=O)N[C@@H](Cc2ccc(O)cc2)C(N)=O)C(C)C)NC(=O)[C@H](CCC(N)=O)NC(=O)[C@H](CCCNC(=N)N)NC(=O)[C@H](Cc2c[nH]c3ccccc23)NC1=O (Ac-[Pra]WRQ[Orn(N3)]AFVDSY-NH2; triazole 1-5) | 14% | –
13 | CC(C)[C@H](NC(=O)[C@H](Cc1ccccc1)NC(=O)[C@H](C)NC(=O)[C@H](C)NC(=O)[C@H](CCC(N)=O)NC(=O)[C@H](CCCNC(=N)N)NC(=O)[C@H](Cc1c[nH]c2ccccc12)NC(=O)CCCCCNC(=O)[C@@H](N)CCCCN)C(=O)N[C@@H](CC(=O)O)C(=O)N[C@@H](CO)C(=O)N[C@@H](Cc1ccc(O)cc1)C(=O)O [SBL-PX1-214] (H-K[Ahx]WRQAAFVDSY-OH) | – | inhibition at 100 µM (Panx1 channels [1]; EA.hy 926, 100 µM, 30 min HOS stimulation, read-out: % ATP release inhibition at 100µM (in EA.hy926 cells)): 30%
14 | CC(C)[C@H](NC(=O)[C@H](Cc1ccccc1)NC(=O)[C@H](C)NC(=O)[C@H](C)NC(=O)[C@H](CCC(N)=O)NC(=O)[C@H](CCCNC(=N)N)NC(=O)[C@@H](N)Cc1c[nH]c2ccccc12)C(=O)N[C@@H](CC(=O)O)C(=O)N[C@@H](CO)C(=O)N[C@@H](Cc1ccc(O)cc1)C(=O)O [^10Panx1, WRQAAFVDSY] (H-WRQAAFVDSY-OH) | – | inhibition at 100 µM (Panx1 channels [2]): 19%; cytotoxicity (extracellular LDH) (B16-BL6 cells): no cytotoxicity; inhibition at 100 µM (Panx1 channels [1]; EA.hy 926, read-out: % ATP release inhibition at 100µM (in EA.hy926 cells)): 24%
15 | Ac-*WRQ*AFVDSY-NH2 | – | cleaved bond (human plasma; up to 24 h): A-F, major; also recorded: D-S, major; not cleaved (human plasma; up to 24 h): amide bonds within the macrocycle remained intact for several hours
16 | Ac-SWRQA*FVD*Y-NH2 | – | cleaved bond (human plasma; up to 24 h): R-Q, major; also recorded: A-*, major
17 | R-*WRQ**FVD*Y-NH2 (m = 1; n = 4; R = K-Ahx-) | – | cleaved bond (human plasma; up to 24 h): K-Ahx, major, 8 hours
18 | WRQAAFVDSY | – | cleaved bond (human plasma; cited from earlier work): Trp74-Arg75; also recorded: Ala78-Phe79

— PMC10544015 (Journal of Medicinal Chemistry, 2023)
